Experimental data taken from publication PMC9482650, “Quantitative fragmentomics allow affinity mapping of interactomes” (Nature Communications, 2022).

Legend:
Test in all cases: holdup assay
Parameters in all cases: key: below the threshold = too weak to quantify, mostly under pKd 3.1 to 4
Conditions in all cases: plain residues with an end cap or a label only (N-terminal biotin on a linker: ttds)
SDCBP_1, O00560 = molecular target: SDCBP_1, O00560
MAGI3_3, Q5TCQ9 = molecular target: MAGI3_3, Q5TCQ9
Sequence of MAGI3_3, Q5TCQ9 (Q5TCQ9 572-655): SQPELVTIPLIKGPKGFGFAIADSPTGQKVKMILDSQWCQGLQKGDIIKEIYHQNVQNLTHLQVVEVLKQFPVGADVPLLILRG

LNX2_4, Q8N448 = molecular target: T1, LNX2_4, Q8N448
T1 sequence (Q8N448 595-690, limits assumed, looked up): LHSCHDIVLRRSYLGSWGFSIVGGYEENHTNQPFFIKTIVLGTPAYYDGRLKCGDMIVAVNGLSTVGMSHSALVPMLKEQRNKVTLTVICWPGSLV

MAGI3_5, Q5TCQ9 = molecular target: MAGI3_5, Q5TCQ9
Sequence of MAGI3_5, Q5TCQ9 (Q5TCQ9 847-941): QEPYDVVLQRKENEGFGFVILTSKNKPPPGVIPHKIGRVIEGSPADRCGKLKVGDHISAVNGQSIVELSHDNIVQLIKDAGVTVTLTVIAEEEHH

NHERF2_1, Q15599 = molecular target: NHERF2_1, Q15599
Sequence of NHERF2_1, Q15599 (Q15599 9-91): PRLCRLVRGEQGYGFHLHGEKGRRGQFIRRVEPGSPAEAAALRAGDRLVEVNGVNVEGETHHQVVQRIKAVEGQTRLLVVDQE

DLG2_1, Q15700 = molecular target: DLG2_1, Q15700
GIPC3, Q8TF64 = molecular target: GIPC3, Q8TF64
Sequence of GIPC3, Q8TF64 (Q8TF64 107-202): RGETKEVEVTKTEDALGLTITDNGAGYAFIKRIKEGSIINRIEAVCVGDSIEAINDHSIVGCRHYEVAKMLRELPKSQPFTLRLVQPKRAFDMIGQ

PREX2_2, Q70Z35 = molecular target: T2, PREX2_2, Q70Z35
T2 sequence (Q70Z35 672-764, limits assumed, looked up): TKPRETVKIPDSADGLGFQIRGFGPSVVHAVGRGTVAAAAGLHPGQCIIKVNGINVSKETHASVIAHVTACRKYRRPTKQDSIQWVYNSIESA

MAGI3_4, Q5TCQ9 = molecular target: MAGI3_4, Q5TCQ9
Sequence of MAGI3_4, Q5TCQ9 (Q5TCQ9 716-815): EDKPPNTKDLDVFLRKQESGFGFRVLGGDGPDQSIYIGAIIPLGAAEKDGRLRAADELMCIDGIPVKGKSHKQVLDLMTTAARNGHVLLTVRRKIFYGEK

PARD3B_3, Q8TEW8 = molecular target: PARD3B_3, Q8TEW8
Sequence of PARD3B_3, Q8TEW8 (Q8TEW8 490-594): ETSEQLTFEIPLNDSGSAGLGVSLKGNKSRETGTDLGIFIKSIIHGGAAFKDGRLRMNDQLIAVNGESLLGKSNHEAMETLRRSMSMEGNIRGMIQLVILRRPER

PARD3_1, Q8TEW0 = molecular target: PARD3_1, Q8TEW0
Sequence of PARD3_1, Q8TEW0 (Q8TEW0 264-372): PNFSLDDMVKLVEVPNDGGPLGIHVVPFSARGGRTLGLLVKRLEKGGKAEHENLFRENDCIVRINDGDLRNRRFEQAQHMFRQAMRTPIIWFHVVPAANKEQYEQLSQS

DLG5_2, Q8TDM6 = molecular target: DLG5_2, Q8TDM6
Sequence of DLG5_2, Q8TDM6 (Q8TDM6 714-800): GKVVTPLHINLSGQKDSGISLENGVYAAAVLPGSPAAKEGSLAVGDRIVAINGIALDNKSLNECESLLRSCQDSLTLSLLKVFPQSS

PDLIM4, P50479 = molecular target: PDLIM4, P50479
Sequence of PDLIM4, P50479 (P50479 1-83): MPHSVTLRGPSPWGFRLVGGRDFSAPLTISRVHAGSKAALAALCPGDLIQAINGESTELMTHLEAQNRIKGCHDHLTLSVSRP

CNKSR3, Q6P9H4 = molecular target: CNKSR3, Q6P9H4
Sequence of CNKSR3, Q6P9H4 (Q6P9H4 203-303): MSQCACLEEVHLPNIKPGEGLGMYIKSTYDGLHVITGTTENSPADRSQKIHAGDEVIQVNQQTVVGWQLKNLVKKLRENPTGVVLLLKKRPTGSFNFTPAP

MAST3, O60307 = molecular target: MAST3, O60307
Sequence of MAST3, O60307 (O60307 945-1048): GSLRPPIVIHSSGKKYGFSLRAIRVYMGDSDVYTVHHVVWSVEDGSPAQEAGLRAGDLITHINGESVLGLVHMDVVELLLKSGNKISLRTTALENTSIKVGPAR

MAGI1_3, Q96QZ7 = molecular target: MAGI1_3, Q96QZ7
Sequence of MAGI1_3, Q96QZ7 (Q96QZ7 638-725): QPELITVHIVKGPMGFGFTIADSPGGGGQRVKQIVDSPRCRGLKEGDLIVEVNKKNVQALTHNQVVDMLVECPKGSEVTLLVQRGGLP

USH1C_2, Q9Y6N9 = molecular target: T3, USH1C_2, Q9Y6N9
T3 sequence (Q9Y6N9 206-303, limits assumed, looked up): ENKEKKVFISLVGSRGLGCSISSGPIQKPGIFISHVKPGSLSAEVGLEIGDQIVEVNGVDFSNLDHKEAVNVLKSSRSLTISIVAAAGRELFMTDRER

SHROOM2, Q13796 = molecular target: T4, SHROOM2, Q13796
T4 sequence (Q13796 21-118, limits assumed, looked up): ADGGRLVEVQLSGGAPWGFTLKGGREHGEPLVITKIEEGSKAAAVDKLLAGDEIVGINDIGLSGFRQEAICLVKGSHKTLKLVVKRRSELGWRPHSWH

DVL2, O14641 = molecular target: DVL2, O14641
Sequence of DVL2, O14641 (O14641 260-359): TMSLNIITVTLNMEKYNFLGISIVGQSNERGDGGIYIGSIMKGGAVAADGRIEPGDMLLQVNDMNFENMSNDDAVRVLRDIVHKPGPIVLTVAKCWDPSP

TJP3_2, O95049 = molecular target: T5, TJP3_2, O95049
T5 sequence (O95049 190-282, limits assumed, looked up): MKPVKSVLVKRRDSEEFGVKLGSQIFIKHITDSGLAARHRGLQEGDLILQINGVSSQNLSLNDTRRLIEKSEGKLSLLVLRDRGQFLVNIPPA

PDZD7_2, Q9H5P4 = molecular target: T6, PDZD7_2, Q9H5P4
T6 sequence (Q9H5P4 205-303, limits assumed, looked up): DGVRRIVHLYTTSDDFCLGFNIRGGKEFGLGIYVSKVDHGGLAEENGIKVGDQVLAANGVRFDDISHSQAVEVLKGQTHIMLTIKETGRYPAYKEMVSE

RIMS1, Q86UR5 = molecular target: RIMS1, Q86UR5
Sequence of RIMS1, Q86UR5 (Q86UR5 584-692): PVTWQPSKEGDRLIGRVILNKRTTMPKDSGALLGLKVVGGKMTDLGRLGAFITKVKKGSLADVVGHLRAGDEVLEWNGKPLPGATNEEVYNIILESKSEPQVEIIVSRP

PTPN13_5, Q12923 = molecular target: T7, PTPN13_5, Q12923
T7 sequence (Q12923 1877-1975, limits assumed, looked up): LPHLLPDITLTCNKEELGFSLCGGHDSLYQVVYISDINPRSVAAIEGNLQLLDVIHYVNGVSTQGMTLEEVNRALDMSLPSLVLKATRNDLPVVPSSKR

GIPC1, O14908 = molecular target: T8, GIPC1, O14908
T8 sequence (O14908 128-223, limits assumed, looked up): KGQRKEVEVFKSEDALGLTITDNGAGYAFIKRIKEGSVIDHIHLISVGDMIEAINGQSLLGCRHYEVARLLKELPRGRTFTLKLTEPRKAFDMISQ

GRIP2_2, Q9C0E4 = molecular target: GRIP2_2, Q9C0E4
Sequence of GRIP2_2, Q9C0E4 (Q9C0E4 137-245): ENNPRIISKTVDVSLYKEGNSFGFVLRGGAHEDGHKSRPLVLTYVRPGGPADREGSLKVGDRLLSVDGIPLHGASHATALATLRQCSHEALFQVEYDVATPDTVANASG

PDZD2_1, O15018 = molecular target: T9, PDZD2_1, O15018
T9 sequence (O15018 80-192, limits assumed, looked up): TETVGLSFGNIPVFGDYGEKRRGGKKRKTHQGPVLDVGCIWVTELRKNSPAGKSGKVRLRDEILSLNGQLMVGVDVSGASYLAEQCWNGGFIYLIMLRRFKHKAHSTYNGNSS

INTU, Q9ULD6 = molecular target: T10, INTU, Q9ULD6
T10 sequence (Q9ULD6 180-273, limits assumed, looked up): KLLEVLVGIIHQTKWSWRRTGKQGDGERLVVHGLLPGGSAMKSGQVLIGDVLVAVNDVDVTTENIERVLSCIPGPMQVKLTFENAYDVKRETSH

MAGI1_4, Q96QZ7 = molecular target: MAGI1_4, Q96QZ7
Sequence of MAGI1_4, Q96QZ7 (Q96QZ7 other isoform, or with tags, fused parts or gaps): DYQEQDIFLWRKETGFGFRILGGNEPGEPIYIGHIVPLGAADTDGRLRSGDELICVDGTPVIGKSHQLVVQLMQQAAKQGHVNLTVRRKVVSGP

Sequence of SDCBP_1, O00560 (O00560 111-198): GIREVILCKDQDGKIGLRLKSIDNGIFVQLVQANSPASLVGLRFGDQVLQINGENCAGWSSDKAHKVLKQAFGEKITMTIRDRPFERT

Binder	pKd (SDCBP_1, O00560)	pKd (MAGI3_3, Q5TCQ9)	pKd (LNX2_4, Q8N448)	pKd (MAGI3_5, Q5TCQ9)	pKd (NHERF2_1, Q15599)	pKd (DLG2_1, Q15700)	pKd (GIPC3, Q8TF64)	pKd (PREX2_2, Q70Z35)	pKd (MAGI3_4, Q5TCQ9)	pKd (PARD3B_3, Q8TEW8)	pKd (PARD3_1, Q8TEW0)	pKd (DLG5_2, Q8TDM6)	pKd (PDLIM4, P50479)	pKd (CNKSR3, Q6P9H4)	pKd (MAST3, O60307)	pKd (MAGI1_3, Q96QZ7)	pKd (USH1C_2, Q9Y6N9)	pKd (SHROOM2, Q13796)	pKd (DVL2, O14641)	pKd (TJP3_2, O95049)	also measured
STLTIFETAL [ABCC4, O15439]	below the threshold	below the threshold	below the threshold	4.39	4.83	4.21	4.21	below the threshold	below the threshold	below the threshold	below the threshold	below the threshold	below the threshold	below the threshold	4.29	below the threshold	below the threshold	4.44	below the threshold	below the threshold	pKd (PDZD7_2, Q9H5P4): 4.54; pKd (RIMS1, Q86UR5): below the threshold; pKd (PTPN13_5, Q12923): below the threshold; pKd (GIPC1, O14908): 4.1; pKd (GRIP2_2, Q9C0E4): below the threshold; pKd (PDZD2_1, O15018): 4.19; pKd (INTU, Q9ULD6): below the threshold; pKd (MAGI1_4, Q96QZ7): below the threshold
QSARYRDTEL [TJP2, Q9UDY2]	below the threshold	below the threshold	below the threshold	below the threshold	below the threshold	below the threshold	below the threshold	below the threshold	below the threshold	below the threshold	below the threshold	below the threshold	below the threshold	below the threshold	below the threshold	below the threshold	below the threshold	below the threshold	below the threshold	below the threshold	pKd (PDZD7_2, Q9H5P4): below the threshold; pKd (RIMS1, Q86UR5): below the threshold; pKd (PTPN13_5, Q12923): below the threshold; pKd (GIPC1, O14908): below the threshold; pKd (GRIP2_2, Q9C0E4): below the threshold; pKd (PDZD2_1, O15018): below the threshold; pKd (INTU, Q9ULD6): below the threshold; pKd (MAGI1_4, Q96QZ7): below the threshold
